Measured values as given in patent US20230013784A1 (JIANGSU HENGRUI MEDICINE, published 2023).

T1: human CEA protein on the cell surface of MKN45 human gastric cancer cells (human, UniProt P06731 35-685)
T1 construct: whole, on cells; GPI-anchored glycoprotein; also called CEACAM-5; CD66e
T1 sequence (looked up): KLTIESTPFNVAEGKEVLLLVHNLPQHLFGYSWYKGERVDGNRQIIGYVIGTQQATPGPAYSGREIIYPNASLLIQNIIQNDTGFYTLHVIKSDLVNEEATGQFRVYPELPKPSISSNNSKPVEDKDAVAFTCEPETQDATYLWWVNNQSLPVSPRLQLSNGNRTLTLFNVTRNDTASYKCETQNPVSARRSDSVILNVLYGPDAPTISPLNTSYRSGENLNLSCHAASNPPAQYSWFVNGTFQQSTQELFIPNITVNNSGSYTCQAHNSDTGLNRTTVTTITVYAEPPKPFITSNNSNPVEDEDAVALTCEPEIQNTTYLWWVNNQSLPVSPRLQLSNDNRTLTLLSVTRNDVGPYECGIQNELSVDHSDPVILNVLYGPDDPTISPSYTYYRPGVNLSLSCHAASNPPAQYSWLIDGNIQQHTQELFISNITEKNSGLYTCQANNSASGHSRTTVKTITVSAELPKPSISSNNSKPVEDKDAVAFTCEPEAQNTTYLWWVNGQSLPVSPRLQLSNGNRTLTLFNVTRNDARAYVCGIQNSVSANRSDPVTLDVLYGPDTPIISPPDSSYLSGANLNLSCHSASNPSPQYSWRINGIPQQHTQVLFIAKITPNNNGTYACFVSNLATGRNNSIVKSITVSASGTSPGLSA

B1: mAb63 (antibody, V domains shown)
VH: EVQLQQSGPELVKPGASVKMSCKASGYTFTDFYMNWVRQSHGKSLEWIGDIFPKNGNTDYNRKFKDKATLTVDKSSNTVYMEFRSLTLEDSAIYFCARSGYGNYVFDYWGQGTIFTVSS
VL: DVQMTQTPSALSASLGDRVTISCRTSQDINIYLNWYQQKPDGTVKLLIYYRSGLLSGVPSRFSGSGSGTDYSLTISNLEPEDIATYFCQQGNTLPPTFGGGTKLEIK
notes: murine hybridoma antibody
B2: mAb47 (antibody, V domains shown)
VH: QIQLVQSGPELKKPGETVKISCKASGYTFTTYGMSWVKQAPGKGLKWMGWINTYSGVPTYADDFKGRFAFSLETSASTAYLQINNLKNEDTATYFCARRGNYGRWDFDVWGTGTTVTVSS
VL: EIVLTQSPALMAASPGEKVTITCSVSSTISSSNLHWYQQKSETSPKPWIYGTSNLASGVPVRFSGSGSGTSYSLTISSMEAEDAATYYCQQWSIYPLTFGAGTKLELK
notes: murine hybridoma antibody
B3: mAb103 (antibody, V domains shown)
VH: QIQLVQSGPELKKPGETVKISCKASGYTFTTYGVIWVKQAPGKGLKWMGWINTYSGVPTYADDFKGRFAFSLETSASTAFLQINNLKNEDTATYFCARKKTLTTVTPWFAYWGQGTLVTVSA
VL: DLVVTQSSSASFSLGASAKLTCTLSSQHSTYTIEWYQQQPLKPPKYVMELKKDGSHSTGDGIPDRFSGSSSGADRYLTISNIQPEDEAIYICGVGNTIKEQFVYVFGGGTKVTVL
notes: murine hybridoma antibody

Target: T1, human CEA protein on the cell surface …
Test: FACS on MKN45; with/without 5 ug/ml sCEA as competitor
Protocol: In order to detect whether the antibody preferentially binds to CEA present on the surface of cell membrane in the presence of sCEA (as shown in SEQ ID NO:1), the inventors pre-incubated a gradient of diluted antibodies with a certain concentration of sCEA (5 μg/ml) for 30 min, then MKN45 cells were collected (human gastric cancer cells, Nanjing Kebai Biotechnology Co., Ltd., Cat #CBP60488) and loaded into 96-well plate. The gradient of diluted antibodies as well as the mixture of pre-incubated antibody and sCEA were separately added to each well, incubated at 4° C. for 60 min and centrifuged to remove the supernatant. Pre-cooled PBS containing a final concentration of 10% FBS was added to wash the cells, repeated twice. 50 μl of 1:200 diluted secondary antibody Alexa Fluor@488 goat anti-human IgG (H+L) (Lifetechologies, Cat #A11013) was added, incubated at 4° C. in dark for 45 min and centrifuged to remove the supernatant. 250 μl of pre-cooled PBS containing a final concentration of 10% FBS was added to wash the cells; repeated twice. 100 μl of pre-cooled PBS was added to each well for resuspension. Flow cytometer (FACS) was used for detection to obtain the fluorescence signal value.

| Binder | maximum fluorescence signal ratio (without sCEA v.s. with sCEA) |
| --- | --- |
| B1 | 1.43 |
| B2 | 1.08 |
| B3 | 1.02 |
